The record followed here is article PMC3139607, “Broad-Spectrum Inhibition of HIV-1 by a Monoclonal Antibody Directed against a gp120-Induced Epitope of CD4” (PLoS ONE, 2011).

This test addresses T1, MAb DB81 (Mus musculus).
T1 construct: IgH V1-39*01, D2-2*01, J3*01; IgK V6-17*01, J2*01; Whole mouse IgG1 kappa; only the variable domains are printed; The first and last residues of each V domain lie under the PCR primers; also called C9 (parent hybridoma well); anti-human CD4-HIV-1-gp120 complex DB81 monoclonal antibody; source: mouse hybridoma (spleen cells of immunized Balb/c mice x P3X63Ag8.653 myeloma); purified from cell …
The test can be described thus: SPR; MAb DB81 bound to the chip; synthetic 19-mer CD4 peptides as analytes (Figure 5). Conditions: both partners purified. (Surface plasmon resonance follows binding to a sensor surface in real time, without labels.)

T1 sequence (VH, as listed by the source, chain 1 of 2): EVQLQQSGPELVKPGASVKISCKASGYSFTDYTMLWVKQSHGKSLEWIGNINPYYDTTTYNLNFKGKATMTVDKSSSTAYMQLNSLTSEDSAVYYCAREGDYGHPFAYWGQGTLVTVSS
T1 sequence (VL, as listed by the source, chain 2 of 2): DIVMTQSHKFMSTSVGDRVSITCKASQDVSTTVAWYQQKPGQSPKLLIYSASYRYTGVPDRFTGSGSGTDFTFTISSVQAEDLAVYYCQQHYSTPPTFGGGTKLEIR

B1: human CD4-derived 19-mer peptide GTWTCTVLQNQKKVEFKID (peptide)
peptide: GTWTCTVLQNQKKVEFKID
notes: aa; 180-198 of membrane CD4 from Hominidae (Homo, P. troglodytes); also called human peptide; source: synthetic peptide (solid-phase F-moc, RP-HPLC purified)
B1: the binding result is reported as “binds”.
